Laboratory results reported in patent publication US12065505B2, “Antibodies and antigen binding peptides for factor XIa inhibitors and uses thereof” (Bristol-Myers Squibb Company, priority 2021, dated 2024).
Positions count from the first letter of the chain named.

B1: 26D5-296-G03-mAb: human IgG1f/kappa mAb; VH SEQ ID NO: 72, VL SEQ ID NO: 88 (antibody, V domains shown)
VH: EVQLVESGGGLIQPGGSLRLSCAASGFQVSSNYMSWVRQAPGKGLEWVSFIYPGGRTYYADSVKGRFTISRDNSKNTLYLQMNSLRAEDTAVYYCARAGFGGGDYWGQGTLVTVSS
VL: DIQMTQSPSSVSASVGDRVTITCRASQGISSNLAWYQQKPGKAPKLLIYAASSLQSGVPSRFSGSGSGTDFTLTISSLQPEDFATYYCQQANSFPLTFGGGTKVEIK
B2: 26D5-296-F08-mAb: human IgG1f/kappa mAb; VH SEQ ID NO: 73, VL SEQ ID NO: 95 (antibody, V domains shown)
VH: B1 VH with Q28T, R56E, A98G
VL: B1 VL with G28Y, S30E
B3: 26D5-295-D07-mAb: human IgG1f/kappa mAb; VH SEQ ID NO: 75, VL SEQ ID NO: 88 (antibody, V domains shown)
VH: B1 VH with S31E, P53S, A98G
VL: B1 VL
B4: 26D5-295-A08-mAb: human IgG1f/kappa mAb; VH SEQ ID NO: 74, VL SEQ ID NO: 88 (antibody, V domains shown)
VH: B1 VH with Q28T, S31E
VL: B1 VL
B5: 26D5-296-C07-mAb: human IgG1f/kappa mAb; VH SEQ ID NO: 77, VL SEQ ID NO: 94 (antibody, V domains shown)
VH: B1 VH with F27I, Q28T, P53S, A98G
VL: B1 VL with G28Y
B6: 26D5-296-D03-mAb: human IgG1f/kappa mAb; VH SEQ ID NO: 76, VL SEQ ID NO: 88 (antibody, V domains shown)
VH: B1 VH with Q28T, P53S, R56E, Y58F, A98G
VL: B1 VL

Test: SPR (Biacore) Protein A mAb capture, Compound A injected
Details: 37° C., binding to Compound A, apparent affinity, for rank ordering only, read-out: KD
Description: The binding of hybridoma expressed 26D5 parent mAb (VH SEQ ID NO: 83 and VL SEQ ID NO: 98 in IgG1 f format)(P1-072224) and affinity matured mAbs to Compound A was examined by SPR (Biacore™) using a protein A capture method. The running buffer was 1×PBS (phosphate buffered saline, pH 7.4) with 0.05% Tween 20 and 2% DMSO. Binding experiments were carried out at 37° C. Protein A was coated on a CM5 S-series sensor chip (Cytiva, Cat. No. 29149603) at high density (2000+ RUs of protein A). The immobilization of protein A was carried out using the standard amine coupling immobilization procedure recommended by the manufacturer. The affinity matured antibody was then captured at a concentration of 2 ug/mL on the protein A surface at a flow rate of 3 uL/min for 2 minutes. Compound A was then injected over the captured antibody at concentrations spanning 100-3 nM (100, 50, 25, 12.5, 6.25, 3.125 nM) (FIG. 10) and for screening concentrations spanning 100-3 nM (100, 33, 11 nM) for 2 minutes at a flow rate of 100 uL/min and allowed to dissociate for at least 450 seconds. The chip surface was regenerated after each cycle with a 40 second pulse of 10 mM Glycine, pH 1.5. Background binding to the protein A surface alone was used to subtract non-specific binding. All experiments were run on a Biacore T200 surface plasmon resonance instrument using Biacore T200 Control software v. 2. Data analysis was performed using Biacore T200 evaluation software v 3.1. Apparent affinities were determined for rank ordering only since dissociation rates were too slow to be measured by Biacore. The names of the mAbs in Table 10 refer to mAbs having the H and L chain sequences of the corresponding Fabs in Table 3 in an IgG1f format.

| Kd | Molecule |
| --- | --- |
| 0.61 nM | B1 |
| 0.68 nM | B2 |
| 1 nM | B3 |
| 0.58 nM | B4 |
| 1.4 nM | B5 |
| 0.71 nM | B6 |

Same assay, conditions: 37° C., binding to Compound A, apparent, for rank ordering only

| Kd | Molecule | Ka |
| --- | --- | --- |
| 0.00058 s⁻¹ | B1 | 940000 M⁻¹ s⁻¹ |
| 0.0006 s⁻¹ | B2 | 870000 M⁻¹ s⁻¹ |
| 0.00081 s⁻¹ | B3 | 800000 M⁻¹ s⁻¹ |
| 0.00059 s⁻¹ | B4 | 1e+06 M⁻¹ s⁻¹ |
| 0.0014 s⁻¹ | B5 | 950000 M⁻¹ s⁻¹ |
| 0.0012 s⁻¹ | B6 | 1.7e+06 M⁻¹ s⁻¹ |
